The target of the assay is FGFR1 extracellular domain (UniProt P11362). Put plainly: optical biosensor.
Sequence of UniProt P11362 (P11362 22-376): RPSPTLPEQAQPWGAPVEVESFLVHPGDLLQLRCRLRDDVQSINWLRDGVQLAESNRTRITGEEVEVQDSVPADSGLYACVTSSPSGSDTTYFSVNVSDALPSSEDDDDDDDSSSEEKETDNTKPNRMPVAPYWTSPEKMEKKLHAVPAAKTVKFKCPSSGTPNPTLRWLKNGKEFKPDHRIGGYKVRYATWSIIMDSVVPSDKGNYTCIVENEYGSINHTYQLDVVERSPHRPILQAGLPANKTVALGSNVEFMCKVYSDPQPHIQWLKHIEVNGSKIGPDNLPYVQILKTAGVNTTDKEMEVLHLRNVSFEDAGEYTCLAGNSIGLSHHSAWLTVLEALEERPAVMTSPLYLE

“Ncad-Fc (from UniProt P19022 160-724) (Fc fusion)”: the Kd (commonly the concentration at which binding is half-saturated) was 106 nM.
